Assay results: the DeepSol protein solubility set

Assay: soluble on expression in E. coli; label from the status in PepcDB or PDB records

| Sequence | soluble on expression in E. coli |
| --- | --- |
| MGSDKIHHHHHHMTANEKKDLAHARVSASDGADAWVRFTVAGKRFDMPVVINASTRSLGASIIVNRMLSRRAPNDARPLMLVTQHITSRMADDLIAKGIPFLDTAGNAYLHEPEATIMIVGRDKPALNLKNPTSRSTTPKGLRVTFALLTQPGLVHAPYRTIADRSAVALNTVNLAMDDLIYRGLVVHKGARRVIADRRRLIEEWASLFPTRLRPKLSPCRFTSWTKESNWWSRPEILDIDARLGGEAGADILTHEIKPASLTIYSHRGITPRLMLNGMLRPDDRGNVEVLETFWPAKAEEGWNLPHREVVHPLLIYSDLITSGDDRNRAVAQTIYDRYLAKERA | not soluble |
| MGSDKIHHHHHHMAWHKLGRVYCADGFADWAQHSFMTPVPVQMSADVIRLYGGMRDDAGISRIGWVDLDAHNPLRVIAVCDAPALDLGEPGMFDDNGVILGDVIRTSEAELRMYYVGFQLVEKAKFLAFTGVAISDASGTRFDRVFPTPVLDRAPEALFINALHSIAQTETGFRAWISCGQRWQDINGRIYPQYNCWTVPSEDGLHFDMRDAVKIMDVNEAEYRIGRPRANRLADGSFELRVTSDTFDKHYSSHLAHSKDGIVFQRSDEVELPRGAPGDWDAEMTCYPARIDTPTGRSYLFYNGNNMGETGVGVAEWQAEA | not soluble |
| SLIENVDAQADSSWPHRGQIEVRNLTVKYTEAGHAVLKNLSFSAEGRQRVGILGRTGSGKSSLFNALLKLVYTDGEISIDGVNWNKMPLEKWRKAFGVVPQKVFIFTGPLRMNLDPYGCHSDEELWRVAEEVGLKTVIEQFPDKLDFQLEYGGYVLSNGHKQLICLARSILSGARILLLDEPSAHLDPVTIKVLKKTLRQSFSTCTILLSEAKVEPLLECDSFLMMDKGQVKTYDSIQKLLNETSDLKQAISPAE | soluble |
| MLEKFTVIRGKAVPLRGEDIDTDRILPARFMKVLTFEGLGQYLFYDERFDEKGNPKPHPLNDPRYRGATILLVESGFGSGSSREHAPQAIKRAGFKAIIGESFAEIFFGNATAIGLPCVSLAPEDLGVLFRSVEENPELEVEIDLVNKEVRFGDRTAPLFIREEAREALVEGLWDPIGELLEAGELLDQFDRKLPYPRRTE | soluble |
| DDKLRIGGTALFKRDRFVDNIGIEDSFFLKLMVDEMKQTTHQFQIDEDGEKAYVVVEKIFSSFNREMTGSMEAPHFRCHIHFRGEITDYTGPLTLTKDETMNKIEEGMARQIETKGEELLKRFQSLGIDPVGLGEKYRSHTRDWKPGVWHDSIYEQATVEVTAEVEIVQSGVTE | not soluble |
| MGSDKIHHHHHHVKLAAVDIGSNAIRFQVSKILEYNGMIMFKKMEYVRFPLRLGEDVFRLGMISAEKEMKFIKLIQTFKNLFELYEVDDYMISATSAMRESKNGRDIVLKVKGLVGVDIDIIDGDKEAELINTVLHNELDDNSYIHIDVGGGSTELNLFVNRKKIAARSFKIGSVRRLQGLDAPEEWESMKQWVKDNIDKLPKPVTAIGTGGNIGKIFELGTTEKSKKDKRMISLKKIEEVQHNISQYSYEDRINVLMLNSDRADVIIPASEIYTSVMEFAKAKNMLVPEVGLKDGLMLMLYERNKHLHITDLDSIRNVNKYQK | not soluble |
| MGHHHHHHSHMFNVMVDAKAQSTKLCSMEMGQEFAKMWHQYHSKIDELIEETVKEMITLLVAKFVTILEGVLAKLSRYDEGTLFSSFLSFTVKAASKYVDVPKPGMDVADAYVTFVRHSQDVLRDKVNEEMYIERLFDQWYNSSMNVICTWLTDRMDLQLHIYQLKTLIRMVKKTYRDFRLQGVLDSTLNSKTYETIRNRLTVEEATASVSEGGGLQGISMKDSDEEDEEDD | not soluble |
| MEKNEKNGVFSRVRSRWRSIFSKKANPVKLRDCNRLTFERILSDPNEQIGTIVAQATVEPITLPNGGGIALIQETTLYEEDYGLEDSSNFPIISETAQSLRRRMRRLSSGDLNVIRRMTEEIDFDLKNIIYDGNEITGETDADNGNDRACFKPGPDYPIDQQMLFLKQCIKKIDTRPPNMYYLTNGWSVDNFEALFKYMIRSGEDCSRDTLLRVEFRDCVVSLKSLYDFIEEYATFKGVKMHSDYVYAIVHSRNEKLERRLRGAIDSFMEIESKIRQARISYVSSFTINSPHTPNVSIIVKFCCLKPCNSDAKTKMRQISVQVDHVTGRSRMSLPDVRQHEGLVCECLGDFSLIRHRPTSVPVTKILDEHPPLIVDEEVRLKSSYQFNPVTGEPIPDDEQQQEQTEIEVNKKIKKPKIVPNQTLLGNEHDIFPRFSIFIGFYKASIEDPLEINDFVEMFPLILVLLEKAGIQELEDGDAPEKSVSKYPKKRSIVDGASSETCEDTQSVGSSESSEPRSPEFTEYSESEDTAADSETSDSESSSEDEKENMKSSIKELELIKDAPEDL | soluble |
| MNDELFNLIERLANLLRQETRLEGQSLGLQPIQQEALYYLSTCNRYSDTTLAVTEFLGLTKGTVSQSLKILESKSLIAKVKDKKDKRITHLKVTETGREFLMKTCPPQKFTDAIAGLSVDEEFETKTLLKKVLSNYQLATGRTAFGVCKHCKFNRKTSDGILCDLTKEALSSDDIMLICREYVV | not soluble |
| TTCCPSIVARSNFNVCRLPGTPEALCATYTGCIIIPGATCPGDYAN | soluble |
| MEYKSSPKRPYYLRGFYDWLVDNSFTPYLVVDATYLGVNVPVEYVKDGQIVLNLSASATGNLQLTNDFIQFNQRFKGVSRELYIPMGAALAIYARENGDGMMFEPEEIYDELNIEPDTEQPTGFYEAVD | soluble |
| MGSDKIHHHHHHMKGISHRIAIPLILEVGNNKIYNIGQIIKKGNFKRVSLYFGEGIYELFGETIEKSIKSSNIEIEAVETVKNIDFDEIGTNAFKIPAEVDALIGIGGGKAIDAVKYMAFLRKLPFISVPTSTSNDGFSSPVASLLINGKRTSVPAKTPDGIVVDIDVIKGSPEKFIYSGIGDLVSNITALYDWKFEEENHKSIIDDFAVMISKKSVNSFVRTDFKSIKDEVFLKELVDSLTMNGIAMEIAGNSSPASGAEHLISHALDKFLPNPQLHGIQVGVATYIMSKVHKHREERIKKILSDTGFFNYVKGLNMKKSDFKRAISEAHLIKPARYTYLHVEKNCETAKEIVDTDEILRNILV | not soluble |
| MSYTHILVAVAVTPESHQLLAKAVSIARPVQAKVSLITLASDPELYNQFAAPMMEDLRAVMHEETENFLKMLGEKADYPIEQTFIASGELSQHILAVCRKHHVDLVICGNHNHSFFSRASCSAKSVVSASQVDVLLVPLAGD | not soluble |
| MGSDKIHHHHHHMFRTVALTGATGFIGRVLIAKLAASGWKVRALARRVPFRQDLPLVEWICGDMNCDSVLCDLVSGTEAVIHCAGAIRGKSWDDFSRTNVTGTRNILRAASGAPSCSRFLFISSLAAREPHLSWYARSKFEAEQLIPGFSGLASTVFRPAAVYGLGDKAMQPFFQAMRYGILLVPGDPGNRFGLIHVDDMVAAIHNWLEAGQPVKGTYEIDDGTSGGYDYTSIAALAEQVLSRPVHCLQIPLGGIRMLARFNLWLAHLLNYAPILTPGKVMEFQHPDWTCDISSLKRELAGWSPVTKLETVLPLLVRM | not soluble |
| MSLDIQIQYSTDWKEEFLKRLEDGGPWSNWEMGKLAYEAANYQVIPEFHGLQAPKHLPQLQPFPHQMEVAQTVIEQMNGKAILADEVGLGKTIEAGLILKEYMIRGLAKKVLILVPASLVSQWAYELSSKFYIPAIPQKKAYVWEQYDVVVASIDTAKRQPHRDIVLNQHYDLVIIDEAHKLKNPKTKNYAFIKSLKRKYCLLLTATPVQNKLEEIFNLVSLLKPGHLGDLESFEKEYRANKRAPKNEDKLKELVNKVMVRNRREETGIEWTKRIVQTVPITFSEGERAFYHAITKLKQQPDVMTNSFSLLTLQREICSSREAAFMTLKNMITKLEQEGRTSPILESLIEQVGTIEGHAKAEKALELIQQINDKVIIFTEYRATQLYLQWYLKQHGISSVPFRGGFKRGKKDWMRQLFENRAQVLIATEAGGEGINLQFCHHIINYDLPWNPMRIEQRIGRIHRLGQTEDVRIYNFAVKDTIEEQILTLLYEKIQLFERVVGELDDILTKMNVGSIEEHIRDIFVHSDSEGEMKIKLDHLSAIMNDVANEKEEDHATGATASVSDALLEGHHHHHH | not soluble |
| MGSDKIHHHHHHENLYFQGMGTDKFNNIKIDKYENLINVLKTGDIFLCSGNYLVSKLIKKVSESMFSHTGIIVKWGEHTLIMESVEDDGVRIVPLEHYIKNYENSNNRYNGSLFIARHELLQNVNDDSEMIRNLIKVGFSLLNSGYDKNEIAQIVARIGLGIGRHEDNNEYICSEFVNECFKKIGVEFLTDSEGFIFPEHIAADHHVLPIAQIE | soluble |
| MSLPPILTSQIGPDSIELRLLVAADLEYFNGHFPEQAVLPGVTQLDWAVRLGCEHFGYSAAVANLEVLKFQQLILPGQEVTLVISHNATKEKLTFAYSDGDHRYASGRISFASKQDDGLEHHHHHH | not soluble |
| MAHHHHHHMKNFASWALRLHQDGISEERPQLGKQLYDKVCTVQTVKDYPGLRFKDMKEAIGFPIKRDDMFLPASMKEKRQQQQQIGVPPRRSQCFTCGQLGHYSNTCGVFKHKLNTRQKSDIQFKKQ | not soluble |
| MGSDKIHHHHHHMLEVIDVWKKYPPKTQALREVSFEAEEGSITAVFGENGSGKTTLLKVIASFLIPDRGKVLIDSVNIVEKPSFAVEKVSISTGYERSFYYRLSVEENLKFFGMLNDLLGKTLKRETERVMKELGLLECRKKRYMELSTGYKKRVDVARALMKKASIYIFDEPCSGVDLRTRLKIHEIMKRLKESGRIVIFASHDLEDLKIADRVIVLKKGEKVLEFSPKKEDLAAVLRGILEIQAFPGD | not soluble |
| AHHHHHHGSGGMTIAEKILATHAGKEEVKPGEIVLAKVDFMFGNDVTTPLAIKTFRKIGVEKVFDPERIAIVLDHFTPNKDIKAAEQCKFSREFAREQGIKWFFEGGNVGVEHCLLPELGLVLPGELIIGADSHTCTYGALGAFATGVGSTDLAVAMATGEAWFRVPETIKFVYEGDLQPWVTSKDLILYTIGDIGVNGALYKVMEFSGEVIEKLSVEQRMTMTNMAIEAGAKTGIIEPDKKTIEYVKGRAKREYKIYKSDEDAKYYKVIEYDVSKIEPQVAFPHLPENTVPISKAAKMNIKIDQVVIGSCTNGRLEDLRMAAEVLEGQKVAPWVRLIILPCSPTVYFKAMKEGLLEIFLEAGAVIGPPTCGPCLGGHMGILASGERAVSTTNRNFVGRMGHPKSEVYLASPYVAAASAILGRIASPEEVVK | soluble |
| RGSHMEVRNMVDYELLKKVVEAPGVSGYEFLGIRDVVIEEIKDYVDEVKVDKLGNVIAHKKGEGPKVMIAAHMDQIGLMVTHIEKNGFLRVAPIGGVDPKTLIAQRFKVWIDKGKFIYGVGASVPPHIQKPEDRKKAPDWDQIFIDIGAESKEEAEDMGVKIGTVITWDGRLERLGKHRFVSIAFDDRIAVYTILEVAKQLKDAKADVYFVATVQEEVGLRGARTSAFGIEPDYGFAIDVTIAADIPGTPEHKQVTHLGKGTAIKIMDRSVICHPTIVRWLEELAKKHEIPYQLEILLGGGTDAGAIHLTKAGVPTGALSVPARYIHSNTEVVDERDVDATVELMTKALENIHELKI | soluble |
| MSLKIAEMDSNSAVMAAQNEVIRGEIKDRDGNVLAKSTKSGDLTQKREYPYGEIYSHPIGYASGIYGNAGLEGAYSKELTTYENVSLKAFLKSFNLKKDFKERNESDKKVGNSIVTTLDTDLQKAAYAALGANRGAVVALDPKTGAVLASVSKPGFNPNNMKETYEIANNPNGNPKDAILVDRALNGQYPPGSTFKVVTLTSALENLPGVTERTFNDTGSINVGTKDLPNENGNAYGNISLRKALSVSSNVIFGGILGEELGNKKLRETAEKYGFNKDLYLGNLKAYSGSFPDRKTVDKGLIAYDAIGQGEVLSSPIEMAMVAATVANNGVRMEPYIVSKVVDKDGDTVKEFSSTKKDTVMSKEQAQIINEYMQGVAKDRINDNWGYFKGMNVAAKTGTAQVPDGNSHAWLIAFAPADDPKIAVATIVENGGSGSKVAAPVTARVMQAYFNEGHHHHHH | soluble |
